One may read the Kd as the free concentration of one partner at which half of the binding sites on the other are occupied at equilibrium, for simple one-to-one binding.

2 substances from doi:10.1101/2024.11.22.622898 can be followed below.

The experiment concerns the target Retromer (recombinant trimer) (human) (UniProt Q96QK1). The experiment is described as follows: ITC. In general terms: Isothermal titration calorimetry measures the heat released or taken up as one component is titrated into another.

For the substance DENND4C peptide 1189-1206, the equilibrium dissociation constant (Kd) worked out at 15.4 µM.
As for “recombinant full-length human TBC1D13 (from UniProt Q9NVG8 1-400) (natural protein)”, the Kd was determined as 6.3 µM.
